Laboratory results reported in PMC6292858.

Target: DREP2 CIDE domain (amino acids 1–84), wild-type (Drosophila melanogaster)
Test: SEC-MALS; self-association; Superdex 200 HR 10/30 coupled to three-angle light scattering and refractive index detectors, 0.2 mL/min; wild type measured in 50 mM NaCl and in 1 M NaCl

DREP2 CIDE domain (amino acids 1–84), wild-type (domain or fragment)
stoichiometry N: 16 to 18 molecules
